Assay results reported in article PMC11362559.

Molecular target: biotinylated I-A^b protein (SPR) (mouse)
Assay: SPR

Kd: 14.8 µM
Substance: mLAG3^ΔL1 (Loop 1 deletion construct of mouse LAG3) (from UniProt Q61790) (receptor)
